Broadly, the Kd is the constant that tells how readily two partners part at equilibrium. The IC50 is the concentration at which inhibition is half-maximal.

We go through three molecules from patent US20120058126A1 (Eli Lilly, published 2012).

The target in assay [1] is chimera 4 (human Ig1-mouse Ig2-human Ig3) sR3-AP (human; mouse, UniProt P05187 23-511). As to the kind of experiment: sR3-AP chimera binding assay on antibody-coated plates. The method, then:
(§1) After 2 hr incubation, the plates are washed 5 times and bound sR3-AP is detected by chemiluminescence.
(§2) DNA sequences encoding mouse and human Ig domains 1-3 are swapped in various combinations to form the following VEGFR-3 extracellular domain constructs: i) wild-type human; ii) wild-type mouse; iii) chimera 1 (human Ig1-human Ig2-mouse Ig3); chimera 2 (human Ig1-mouse Ig2-mouse Ig3); (iv) chimera 3 (mouse Ig1-human Ig2-mouse Ig3) and (v) chimera 4 (human Ig1-mouse Ig2-human Ig3). The constructs are expressed as fusion proteins with alkaline phosphatase (AP) Persaud, et al., supra. The encoded proteins are isolated from conditioned media (CM) of transiently transfected cells and normalized to equal protein concentration and AP activity.

Assay [2] addresses chimera 2 (human Ig1-mouse Ig2-mouse Ig3) sR3-AP (human; mouse, UniProt P05187 23-511). The assay is described as above. The method, then: as §1, §2
Assay [3] has as its target T1, human sR3-AP (full-length soluble extracellular region of human VEGFR-3, Ig domains 1-7, fused to human … (human)).
T1 construct: also called soluble extracellular domain of human VEGFR-3
The assay can be described thus: SPR, BIACORE 2000 at 20° C, sR3-AP immobilized, antibody injected at 0.8 to 6.25 nM. The method, then:
Sensograms are evaluated using the BIA Evaluation 3.2 program to determine the on rates (ka) and the off rates (kd). The dissociation constant (Kd) is calculated from the ka and kd rates using the equation: […].
For orientation: Surface plasmon resonance follows binding to a sensor surface in real time, without labels.

For assay [4], the target named is T1, human sR3-AP (full-length soluble …). As to the kind of experiment: competitive VEGF-C blocking assay: Fab mixed with 50 ng sR3-AP, plates coated with VEGF-CΔNΔC, OD405; Fab, not IgG. The method, then: After an additional 2 hours, the plates are washed five times and p-nitrophenyl phosphate (Sigma) is added to quantify the bound sR3-AP molecules at OD₄₀₅ₙₘ.

For assay [5], the target named is T2, VEGFR-3-cFMS chimeric receptor (extracellular domain of human VEGFR-3 fused with the transmembrane and … (human, UniProt P07333 518-972, limits assumed)).
T2 sequence: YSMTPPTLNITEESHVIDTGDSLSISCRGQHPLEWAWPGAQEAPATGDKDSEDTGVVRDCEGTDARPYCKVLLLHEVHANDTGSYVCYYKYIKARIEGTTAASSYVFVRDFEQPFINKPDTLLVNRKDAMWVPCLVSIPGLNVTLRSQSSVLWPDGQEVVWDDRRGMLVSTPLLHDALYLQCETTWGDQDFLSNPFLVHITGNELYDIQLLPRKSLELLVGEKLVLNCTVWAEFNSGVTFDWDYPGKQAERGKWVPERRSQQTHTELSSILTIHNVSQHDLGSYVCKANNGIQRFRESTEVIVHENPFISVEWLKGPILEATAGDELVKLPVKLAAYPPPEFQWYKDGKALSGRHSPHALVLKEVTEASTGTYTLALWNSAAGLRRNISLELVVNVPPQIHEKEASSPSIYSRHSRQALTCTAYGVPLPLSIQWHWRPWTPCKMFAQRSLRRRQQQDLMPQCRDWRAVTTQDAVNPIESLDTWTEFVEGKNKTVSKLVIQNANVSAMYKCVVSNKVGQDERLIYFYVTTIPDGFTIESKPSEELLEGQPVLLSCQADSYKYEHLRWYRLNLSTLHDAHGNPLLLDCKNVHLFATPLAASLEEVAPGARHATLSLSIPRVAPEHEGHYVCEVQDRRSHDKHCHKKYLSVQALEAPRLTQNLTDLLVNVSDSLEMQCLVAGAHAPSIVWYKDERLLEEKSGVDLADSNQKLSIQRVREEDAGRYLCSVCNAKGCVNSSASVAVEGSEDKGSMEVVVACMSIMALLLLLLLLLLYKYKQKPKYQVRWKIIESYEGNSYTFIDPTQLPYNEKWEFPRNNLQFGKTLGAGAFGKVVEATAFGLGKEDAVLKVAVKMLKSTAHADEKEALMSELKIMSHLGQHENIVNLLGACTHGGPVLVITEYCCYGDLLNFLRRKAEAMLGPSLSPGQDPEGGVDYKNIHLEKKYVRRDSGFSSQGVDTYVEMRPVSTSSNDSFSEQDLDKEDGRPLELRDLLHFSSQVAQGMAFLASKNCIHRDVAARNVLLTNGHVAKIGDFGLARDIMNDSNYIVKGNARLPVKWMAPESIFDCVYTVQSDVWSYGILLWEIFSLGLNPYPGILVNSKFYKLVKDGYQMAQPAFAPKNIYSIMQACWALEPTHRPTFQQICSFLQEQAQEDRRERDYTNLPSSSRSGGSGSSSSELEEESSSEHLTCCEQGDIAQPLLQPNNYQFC
The assay can be described thus: cell-based or functional assay.

B1: Antibody 1 (IgG form) (antibody, V domains shown)
VH: QVQLQQSGPGLVKPSQTLSLTCAISGDSVSGNSATWNWIRQSPSRGLEWLGRTYYRSKWNHDYAESVKSRITINPDTSKNQFSLQLNSVTPEDTAVYYCARGDSSSWYAFDYWGQGTLVTVSS
VL: EIVLTQSPGTLSLSLGERATLSCRASQSISSSFLAWYQQKPGQAPKLLIYAASTRATGIPDRFSGSGSGTDFTLTISRLEPEDFAVYYCQQYGRSLSFGGGTKVEVKR
notes: also called human anti-VEGFR-3 mAb
On to B1, for which the binding result in assay [1] and in assay [2] was “no binding” each time. Moreover, the dissociation constant (Kd) in assay [3] was found to be 0.056 nM.

B2: Antibody 1 (Fab form) (Fab, V domains shown)
VH: B1 VH
VL: EIVLTQSPGTLSLSLGERATLSCRASQSISSSFLAWYQQKPGQAPKLLIYAASTRATGIPDRFSGSGSGTDFTLTISRLEPEDFAVYYCQQYGRSLSFGGGTKVEVK
notes: also called Fab of Antibody 1
In turn, B2 showed a concentration for half-maximal inhibition (IC50) in assay [4] of 2 nM.

B3: recombinant mature human VEGF-CΔNΔC (ligand)
chain: AHYNTEILKSIDNEWRKTQCMPREVCIDVGKEFGVATNTFFKPPCVSVYRCGGCCNSEGLQCMNTSTSYLSKTLFEITVPLSQGPKPVTISFANHTSCRCMSKL
Turning to B3, the “incorporation of [3H]-TdR (mitogenic response)” value in assay [5] was at least 3 fold.
